Data taken from patent US12686712B2, “Antibody, related use, pharmaceutical composition including method for diagnosing fungal infections, fungal infection diagnosis kit and method for treating fungal infections” (priority 2020, dated 2026).

Legend:
C. albicans [1] = test: Biofilm development, XTT reduction trial; type: cell-based, Candida albicans; details: AcM 25 μg/ml, 48 hours at 37° C., vs fungus without treatment, p<0.05
Experimental: (§1) C. neoformans (H99 and Cap67) and Candida albicans were cultivated in Sabouraud media for 24 hours at 30° C. Cellular suspensions were centrifuged for 5 minutes at 3000 g, washed 3 times in PBC and suspended in minimum media (20 mg/ml thiamin, 30 mm glucose, 26 mM glycine, 20 mM MgSO4, and 58.8 mM KH2PO4). Then, they were added to 96-well plates (100 μl/well—1×10^6 células/ml) and cultivated for 48 hours at 37° C. at presence of AcM (HC6/DD11 and AF1/CC5) and AcM anti-GXM 18B7 (only to H99) at 25 μg/ml concentration, keeping under agitation for 30 minutes, for AcM total homogenization with fungi. As control, drug AmB was used at 1 μg/ml concentration.
(§2) Two analysis systems were performed: in the first, cells were washed, so that non-adhering cells were removed and only cells bonded to biofilm under development remained; in the second system, cells were not washed and all cells adhered or not to substrate were quantified.
(§3) Viable cell metabolic activity in both trials was assessed by the method based on decrease of XTT (2-methoxy-4-nitro-5-sulfophenyl)-5-[(phenylamino) carbonyl]-2H-tetrazolium hydroxide) in spectrophotometer at 492 nm of wavelength.
(§4) AcMs were tested (25 μg/ml) against three fungus species (C. albicans, C. neoformans—H99—and acapsular mutant of C. neoformans—Cap67), with control by AcM anti-GXM 18B7 (25 μg/ml) only to H99. In the first assay (FIGS. 14A and B), cellular suspensions were washed to remove non-adhering cells to substrate. […] In second assay (FIGS. 14C and D), cellular suspensions were not washed, and again AcM inhibited biofilm development (p<0.05) compared to cell not treated with antibodies. In both assays, cell growth was observed.

C. albicans [2] = test: Dot Blot against intact cells using PL; type: binding, Candida albicans; details: AcM 25 μg/ml; cells in 5 μg/ml PL diluted in base 10 from 10^7 cell/ml; 3 independent experiments
Experimental: (§5) C. neoformans (H99) and Candida albicans in 10^7 cell/ml density until 10 cells/ml were suspended in poly-L-Lysine solution (5 μg/ml in PBS) and 10 μl were loaded in nitrocellulose membranes. Then, the same steps for ELISA were followed, however, 25 μg/ml concentration of AcM anti-chitooligomers. Membrane was cut and deposited in 96-well plates, to which 50 μl TMB was added and incubated for 30 minutes at 37° C. Volume was removed and transferred to a new plate, to which stop reaction was added with HCl 1 N and read with spectrophotometer at 450 nm.
(§6) The principle used in this trial was the same of ELISA and was based on the load presented by fungi. As nitrocellulose membrane has negative load, PL was used to check positive load to fungus, and consequently have bond to membrane.
(§7) As provided in FIG. 11, it was initially diluted in 5 μg/ml of PL at 10^7 cell/ml concentration and diluted in base 10. In this trial, it was evidenced that AcM HC6/DD11 was capable to bond to C. albicans up to 10^4 cell/ml order, which counters C. neoformans, that was identified to 10^6 cell/ml order. 3 independent experiments were performed to each trial. Example 16.7—Immunofluorescence

[3] = test system: acapsular mutant of C. neoformans Cap67; test: Biofilm development, XTT reduction trial; type: cell-based, Cryptococcus neoformans; details: AcM 25 μg/ml, 48 hours at 37° C., vs fungus without treatment, p<0.05
Experimental: as §1, §2, §3, §4

C. neoformans (H99) = test: Dot Blot against intact cells using PL; type: binding, Cryptococcus neoformans; details: AcM 25 μg/ml; cells in 5 μg/ml PL diluted in base 10 from 10^7 cell/ml; 3 independent experiments
Experimental: as §5, §6, §7

C. neoformans H99 = test: Biofilm development, XTT reduction trial; type: cell-based, Cryptococcus neoformans; details: AcM 25 μg/ml, 48 hours at 37° C., vs fungus without treatment, p<0.05
Experimental: as §1, §2, §3, §4
AcMs were compared to AcM anti-GXM 18B7 concerning biofilm development inhibition.

Candida albicans = test: Immunofluorescence of AcM anti-chitooligomer against intact cells; type: binding; details: AcM 25 μg/mL, 1 h at 37° C.; anti-IgM Alexa 568; calcofluor
Experimental: Fungal cells (10^6 cells)) were fastened (cacodylate paraformolaldehyde buffer 4%; 30 min) and blocked later (PBS/BSA 1%; 1 hour). Then, they were incubated with AcM anti-chitooligomer(25 μg/mL; 1 h at 37° C.) After washing with PBS, cells were incubated with mouse anti-IgM antibody conjugated at Alexa 568 (SIGMA; 1:1000). After PBS washing, cells were incubated with 25 μM of white calcofluor (Invitrogen) and washed again. Cellular suspensions were assembled in glass blades and assessed under microscope Olympus AX70, coupled to camera system (QImaging Retiga 1300) and assessed in QCapture suite V2.46 software.
From reliable and ELISA and Dot Blot trials, biological activity validation tests. Thus, AcMs were used through immunofluorescence (IF), using the pathogen Candida albicans as template. AcMs were efficient at fungal cellular wall labeling, showing the same profile whenever standard marker is used (lectin), data not provided.

C. neoformans strain H99 = test: Survival trial, lethal i.p. challenge; type: in vivo, Balb/C line mice; details: synergic group: AcM 85 μg/animal with AmB 0.25 mg/kg
Experimental: Balb/C line mice (n=7) were lethally challenged via i.p. with 10^5 cells in PBS of C. neoformans (H99) and treated 2 hours later with 100 μl of AmB (2.5 mg/kg and 0.25 mg/kg), 100 μl of AcM (85 μg/ml) and 100 μl of AcM and AmB combined solution (0.25 mg/kg). Control animals were challenged only by C. neoformans (H99) or only with 100 μl of a solution of PBS, AmB (2.5 mg/kg) or AcM (85 μg/ml) without fungus (adapted from Liedke et al.). Survival rate was achieved and analysis was extended up to 90 days after infection, presenting statistical value with p<0.005.
Mice were lethally challenged with inoculant i.p. of 1×10^5 cells of yeast C. neoformans strain H99. After 2 hours, they were treated with PBS (negative control), 85 μg/animal of AcM (HC6/DD11) in isolate form, 0.25 or 2.5 mg/kg of AmB in isolate form, and in synergic form, AcM keeping test concentrations. Treatments were repeated for another two times, with 10-day interval.

B1: HC6/DD11: murine IgM monoclonal antibody against chitooligomers (chitotriose); VH SEQ ID NO: 15, VL SEQ ID NO: 16 (antibody, listed as Mus musculus, V domains shown)
VH: STGQVKLEESGGGLVQPGGSRKLSCAASGFTFSDYGMAWVRQAPGKGPEWVAFISNLAYSIYYADTVTGRFTISRENAKNTLYLEMSSLRSEDTAMYYCARDYYGSSYWYFDVWGAGTTVTAPC
VL: ATNSCISRGEVTITCSASSSVSYMHWFQQKPGTSPKLWIYSTSNLASGVPARFSGSGSGTSYSLTISRMEAEDAATYYCQQRSSYPLTFGAGTKLELKRADAAPTVSLET
- biofilm development (XTT reduction) (C. albicans [1]; non-washed cells): reduced biofilm development significantly
- biofilm development (XTT reduction) (C. albicans [1]; washed cells): reduced biofilm development significantly
- cell density down to which AcM was capable to bond (Dot Blot) (C. albicans [2]): 10^4 cell/ml
- biofilm development (XTT reduction) ([3]; non-washed cells): reduced biofilm development significantly
- biofilm development (XTT reduction) ([3]; washed cells): reduced biofilm development significantly
- cell density down to which fungus was identified (Dot Blot) (C. neoformans (H99)): 10^6 cell/ml
- biofilm development (XTT reduction) (C. neoformans H99; non-washed cells): reduced biofilm development significantly
- biofilm development (XTT reduction) (C. neoformans H99; washed cells): reduced biofilm development significantly
- fungal cellular wall labeling by immunofluorescence (Candida albicans): characteristic polar label
- death of infected animals (C. neoformans strain H99; followed up to 90 days): did not die
- survival (C. neoformans strain H99; up to 90 days, n=7): 100%
